Assay results published in the Human Domainome abundance scans (Beltran et al. 2025).
± gives the uncertainty stated by the source.

B1: RanBP-type and C3HC4-type zinc finger-containing protein 1, residues 369 to 411; numbered along this chain, Q9BYM8 (parent)
chain: YHCKTPDCKGWCFFEDDVNEFTCPVCFHVNCLLCKAIHEQMNC

Variants of: B1
Experiment: abundance fitness (aPCA) (normalised: wild type 0, dead -1); higher = more abundant; growth selection in yeast, the domain comes from the species named
Conditions: Homo sapiens

**Q.** For YHCKTPDGKGWCFFEDDVNEFTCPVCFHVNCLLCKAIHEQMNC [C8G], which abundance fitness is on record?
**A.** -0.691 ± 0.045

**Q.** For YHCKTPDEKGWCFFEDDVNEFTCPVCFHVNCLLCKAIHEQMNC [C8E], which abundance fitness is on record?
**A.** -0.784 ± 0.13

**Q.** Which abundance fitness does the source give for YHCKTPDMKGWCFFEDDVNEFTCPVCFHVNCLLCKAIHEQMNC [C8M] here?
**A.** -0.843 ± 0.086

**Q.** For YHCKTPDLKGWCFFEDDVNEFTCPVCFHVNCLLCKAIHEQMNC [C8L], which abundance fitness is on record?
**A.** -0.846 ± 0.14

**Q.** With YHCKTPDRKGWCFFEDDVNEFTCPVCFHVNCLLCKAIHEQMNC [C8R] as the variant, how does the abundance fitness read?
**A.** -0.908 ± 0.055

**Q.** For YHCKTPDDKGWCFFEDDVNEFTCPVCFHVNCLLCKAIHEQMNC [C8D], which abundance fitness is on record?
**A.** -0.812 ± 0.15

**Q.** For YHCKTPDAKGWCFFEDDVNEFTCPVCFHVNCLLCKAIHEQMNC [C8A], which abundance fitness is on record?
**A.** -0.761 ± 0.065

**Q.** Which abundance fitness does the source give for YHCKTPDVKGWCFFEDDVNEFTCPVCFHVNCLLCKAIHEQMNC [C8V] here?
**A.** -0.999 ± 0.1

**Q.** With YHCKTPDTKGWCFFEDDVNEFTCPVCFHVNCLLCKAIHEQMNC [C8T] as the variant, how does the abundance fitness read?
**A.** -0.919 ± 0.086

**Q.** With YHCKTPDQKGWCFFEDDVNEFTCPVCFHVNCLLCKAIHEQMNC [C8Q] as the variant, how does the abundance fitness read?
**A.** -0.736 ± 0.12

**Q.** For YHCKTPDFKGWCFFEDDVNEFTCPVCFHVNCLLCKAIHEQMNC [C8F], which abundance fitness is on record?
**A.** -0.554 ± 0.46

**Q.** Which abundance fitness does the source give for YHCKTPDWKGWCFFEDDVNEFTCPVCFHVNCLLCKAIHEQMNC [C8W] here?
**A.** -0.949 ± 0.13

**Q.** With YHCKTPDSKGWCFFEDDVNEFTCPVCFHVNCLLCKAIHEQMNC [C8S] as the variant, how does the abundance fitness read?
**A.** -0.682 ± 0.076

**Q.** Which abundance fitness does the source give for YHCMTPDCKGWCFFEDDVNEFTCPVCFHVNCLLCKAIHEQMNC [K4M] here?
**A.** 0.201 ± 0.062

**Q.** Which abundance fitness does the source give for YHCYTPDCKGWCFFEDDVNEFTCPVCFHVNCLLCKAIHEQMNC [K4Y] here?
**A.** -0.084 ± 0.096

**Q.** For YHCFTPDCKGWCFFEDDVNEFTCPVCFHVNCLLCKAIHEQMNC [K4F], which abundance fitness is on record?
**A.** 0.028 ± 0.09

**Q.** Which abundance fitness does the source give for YHCRTPDCKGWCFFEDDVNEFTCPVCFHVNCLLCKAIHEQMNC [K4R] here?
**A.** 0.021 ± 0.041

**Q.** Which abundance fitness does the source give for YHCETPDCKGWCFFEDDVNEFTCPVCFHVNCLLCKAIHEQMNC [K4E] here?
**A.** -0.359 ± 0.064

**Q.** With YHCVTPDCKGWCFFEDDVNEFTCPVCFHVNCLLCKAIHEQMNC [K4V] as the variant, how does the abundance fitness read?
**A.** 0.051 ± 0.045

**Q.** For YHCPTPDCKGWCFFEDDVNEFTCPVCFHVNCLLCKAIHEQMNC [K4P], which abundance fitness is on record?
**A.** -0.527 ± 0.072

**Q.** For YHCCTPDCKGWCFFEDDVNEFTCPVCFHVNCLLCKAIHEQMNC [K4C], which abundance fitness is on record?
**A.** -0.201 ± 0.051

**Q.** Which abundance fitness does the source give for YHCATPDCKGWCFFEDDVNEFTCPVCFHVNCLLCKAIHEQMNC [K4A] here?
**A.** 0.012 ± 0.041

**Q.** For YHCITPDCKGWCFFEDDVNEFTCPVCFHVNCLLCKAIHEQMNC [K4I], which abundance fitness is on record?
**A.** -0.206 ± 0.14

**Q.** For YHCGTPDCKGWCFFEDDVNEFTCPVCFHVNCLLCKAIHEQMNC [K4G], which abundance fitness is on record?
**A.** -0.222 ± 0.038

**Q.** With YHCSTPDCKGWCFFEDDVNEFTCPVCFHVNCLLCKAIHEQMNC [K4S] as the variant, how does the abundance fitness read?
**A.** -0.14 ± 0.055

**Q.** Which abundance fitness does the source give for YHCLTPDCKGWCFFEDDVNEFTCPVCFHVNCLLCKAIHEQMNC [K4L] here?
**A.** 0.124 ± 0.044

**Q.** With YHCDTPDCKGWCFFEDDVNEFTCPVCFHVNCLLCKAIHEQMNC [K4D] as the variant, how does the abundance fitness read?
**A.** -0.504 ± 0.11

**Q.** With YHCHTPDCKGWCFFEDDVNEFTCPVCFHVNCLLCKAIHEQMNC [K4H] as the variant, how does the abundance fitness read?
**A.** -0.174 ± 0.067

**Q.** For YHCWTPDCKGWCFFEDDVNEFTCPVCFHVNCLLCKAIHEQMNC [K4W], which abundance fitness is on record?
**A.** -0.083 ± 0.065

**Q.** For YHCNTPDCKGWCFFEDDVNEFTCPVCFHVNCLLCKAIHEQMNC [K4N], which abundance fitness is on record?
**A.** -0.134 ± 0.092

**Q.** Which abundance fitness does the source give for YHCKTPDCEGWCFFEDDVNEFTCPVCFHVNCLLCKAIHEQMNC [K9E] here?
**A.** 0.064 ± 0.054

**Q.** For YHCKTPDCAGWCFFEDDVNEFTCPVCFHVNCLLCKAIHEQMNC [K9A], which abundance fitness is on record?
**A.** 0.029 ± 0.044

**Q.** With YHCKTQDCKGWCFFEDDVNEFTCPVCFHVNCLLCKAIHEQMNC [P6Q] as the variant, how does the abundance fitness read?
**A.** -0.063 ± 0.046

**Q.** For YHCKTMDCKGWCFFEDDVNEFTCPVCFHVNCLLCKAIHEQMNC [P6M], which abundance fitness is on record?
**A.** -0.23 ± 0.06

**Q.** Which abundance fitness does the source give for YHCKTLDCKGWCFFEDDVNEFTCPVCFHVNCLLCKAIHEQMNC [P6L] here?
**A.** -0.365 ± 0.08

**Q.** For YHCKTDDCKGWCFFEDDVNEFTCPVCFHVNCLLCKAIHEQMNC [P6D], which abundance fitness is on record?
**A.** -0.343 ± 0.075

**Q.** With YHCKTADCKGWCFFEDDVNEFTCPVCFHVNCLLCKAIHEQMNC [P6A] as the variant, how does the abundance fitness read?
**A.** -0.115 ± 0.044

**Q.** For YHCKTWDCKGWCFFEDDVNEFTCPVCFHVNCLLCKAIHEQMNC [P6W], which abundance fitness is on record?
**A.** -0.629 ± 0.11

**Q.** For YHCKTFDCKGWCFFEDDVNEFTCPVCFHVNCLLCKAIHEQMNC [P6F], which abundance fitness is on record?
**A.** -0.493 ± 0.22

**Q.** For YHCKTIDCKGWCFFEDDVNEFTCPVCFHVNCLLCKAIHEQMNC [P6I], which abundance fitness is on record?
**A.** -0.411 ± 0.11

**Q.** With YHCKTCDCKGWCFFEDDVNEFTCPVCFHVNCLLCKAIHEQMNC [P6C] as the variant, how does the abundance fitness read?
**A.** -0.709 ± 0.1

**Q.** With YHCKTGDCKGWCFFEDDVNEFTCPVCFHVNCLLCKAIHEQMNC [P6G] as the variant, how does the abundance fitness read?
**A.** -0.494 ± 0.044

**Q.** For YHCKTHDCKGWCFFEDDVNEFTCPVCFHVNCLLCKAIHEQMNC [P6H], which abundance fitness is on record?
**A.** -0.434 ± 0.12

**Q.** For YHCKTEDCKGWCFFEDDVNEFTCPVCFHVNCLLCKAIHEQMNC [P6E], which abundance fitness is on record?
**A.** -0.185 ± 0.049

**Q.** With YHCKTSDCKGWCFFEDDVNEFTCPVCFHVNCLLCKAIHEQMNC [P6S] as the variant, how does the abundance fitness read?
**A.** -0.266 ± 0.069

**Q.** With YHKKTPDCKGWCFFEDDVNEFTCPVCFHVNCLLCKAIHEQMNC [C3K] as the variant, how does the abundance fitness read?
**A.** -0.771 ± 0.071

**Q.** Which abundance fitness does the source give for YHFKTPDCKGWCFFEDDVNEFTCPVCFHVNCLLCKAIHEQMNC [C3F] here?
**A.** -1.12 ± 0.23

**Q.** Which abundance fitness does the source give for YHTKTPDCKGWCFFEDDVNEFTCPVCFHVNCLLCKAIHEQMNC [C3T] here?
**A.** -0.937 ± 0.098

**Q.** For YHPKTPDCKGWCFFEDDVNEFTCPVCFHVNCLLCKAIHEQMNC [C3P], which abundance fitness is on record?
**A.** -1.13 ± 0.12

**Q.** With YHLKTPDCKGWCFFEDDVNEFTCPVCFHVNCLLCKAIHEQMNC [C3L] as the variant, how does the abundance fitness read?
**A.** -0.884 ± 0.11

**Q.** For YHDKTPDCKGWCFFEDDVNEFTCPVCFHVNCLLCKAIHEQMNC [C3D], which abundance fitness is on record?
**A.** -0.969 ± 0.1

**Q.** Which abundance fitness does the source give for YHNKTPDCKGWCFFEDDVNEFTCPVCFHVNCLLCKAIHEQMNC [C3N] here?
**A.** -0.666 ± 0.14

**Q.** Which abundance fitness does the source give for YHMKTPDCKGWCFFEDDVNEFTCPVCFHVNCLLCKAIHEQMNC [C3M] here?
**A.** -0.978 ± 0.12

**Q.** Which abundance fitness does the source give for YHGKTPDCKGWCFFEDDVNEFTCPVCFHVNCLLCKAIHEQMNC [C3G] here?
**A.** -0.826 ± 0.044

**Q.** With YHVKTPDCKGWCFFEDDVNEFTCPVCFHVNCLLCKAIHEQMNC [C3V] as the variant, how does the abundance fitness read?
**A.** -1.32 ± 0.11

**Q.** With YHSKTPDCKGWCFFEDDVNEFTCPVCFHVNCLLCKAIHEQMNC [C3S] as the variant, how does the abundance fitness read?
**A.** -0.831 ± 0.082

**Q.** For YHEKTPDCKGWCFFEDDVNEFTCPVCFHVNCLLCKAIHEQMNC [C3E], which abundance fitness is on record?
**A.** -0.984 ± 0.16

**Q.** With YHRKTPDCKGWCFFEDDVNEFTCPVCFHVNCLLCKAIHEQMNC [C3R] as the variant, how does the abundance fitness read?
**A.** -0.906 ± 0.051

**Q.** Which abundance fitness does the source give for YHIKTPDCKGWCFFEDDVNEFTCPVCFHVNCLLCKAIHEQMNC [C3I] here?
**A.** -0.593 ± 0.14
